# Test: label from the status in PepcDB records
row,Sequence,protein production
1,MLQMRTDLMAVACGRRSADLYIENGRVLNVHSGEILSGVGVAVASGRVAYVGPSRGMIGPETQFLDAEGGILVPGYVDPHAHFDNILSPRRLAEALLPLGTTMVVNDTLAVVARFGAPGLACLRAAATSLPLHFGWTVPISGWAPELEEAGYFAGLGLTDAELDVLLADETVLGTSEFLPWRRLLAGDQRLIARLDIARRHGKCCEGHNPGARADHLQVIAAAGLTDCHEALTSAEALNRLRAGLYVVLRHGPARYDLPELASLVMKEGVDRSRLMLTPDWVPPNDLAAFGHMDHPLSAAMEAGIPPLDAYRMASLNPARYFRIEGQIGSIAPGRYADILCLNDLREPRPKWVMAQGAVVARNGVPTPDWHGLDELELPAYRPSVLHASPADFRVASAGTGDVLVPAIEIMDRTVTRRIDLHLPVKDGVVSCAGEEGRVMKMAMPHPEGGFSIGFLVGVGGCLGAMSNSLASEPYHTLVIGTSDDDMAIAYNRMIELGGGVVTVQDGRIEAQLPLPLGGFMTKASAADVGAGIDAVNQWARNNGSNLENAFLTQHFLTYVGVPFFRMTPWGIYDVRKHCFLPPILNQGSEEDAL,failed
2,MSHHNPLVSVVIPSKNRPDLVIATLVSVIDQTYDNIEIIVVDDGSDMPLAPLLKDRFSDRVLCLRNDQSLGGAVARNRGAQSAHGDYITFLDDDDLWLPKKLEMQVDAFSKHGVDIGVVYCGFDFLCKEEIVPRQNKFHNDYDLSIAVLSGCPFGSPTPLIRKHYFDMVGGFDRELPSCQDWDLWIRLSKVCGFYPVKESLALYRVHGDQISTNLRKKIDGRKMVLAKHYDEIKNYPRVLSAHYSRIGSLCVLADEHVEARDFFSKALASNMFDGGSFVHLVLQFLCRPLEKWLIERFSVNTIDGIKVIHLEHHHHHH,failed
3,MVEPMTPRFKYTKASQENIQQLGNILEQCFVMSFGDSEIYVKGIGLENFRVIYREQKVAGGLAILPMGQWWGGQRVPMAGIAAVGIAPEYRGDGAAIALIQHTLQEISEQDIPISVLYPATQRLYRKAGYEQAGSSCVWEIPTDSIQIQHASLPLEPVVLKNNPIFHELYQQQAQLTHGYLDRHPAIWQGLNRTLDTETLYSYLIGDKDKPQGYIIFTQERTRDGSILRIRDWVTLSNPAVQSFWTFIANHRSQIDKVTWKSSVIDALTLLLPEQSATIRSQDRWMLRIVNVCKALEARGYPLGVEAELHLEVQDDLLATNQGKFILSVANGKSEVTKGGKGELQLDIKGLASLYTSLFTPRQLQLTGKLQATETALLKATQIFAGESPWMIDFF,not failed
4,MNIQDYPDRDMLAIDLANHLAGELEATLFTHDSATLAVAGGTTPGPVFDVLCAADLDWHRVMVLPTDERCVPQDHSRANARLIAERLLVNRAASARYLPLYLPGAEPEDCLAEVEALLTPALPLSVLVLGMGEDMHTASLFAGMPGLAAALDADAPALAVARPETQPENRITLTAPVLNGALSKHLIIYGAAKRKALERAMSMHPEEAPIAAVLDGITVHW,failed
5,MTPFTQSQRIKALFWLSLFHLLVIISSNYLVQLPITIFGFHTTWGAFSFPFIFLATDLTVRIFGAPLARRIIFAVMIPALLVSYVVSSLFYMGAWQGFAALANFNLFVARIAAASFMAYALGQILDVHVFNRLRQNRRWWLAPTASTLFGNISDTLAFFFIAFWRSPDAFMAGHWMEIALVDYCFKVLISIIFFLPMYGVLLNMLLKKLADKSEISPLPAS,not failed
6,MSAIDCIITAAGLSSRMGQWKMMLPWEQGTILDTSIKNALQFCSRIILVTGYRGNELHERYANQSNITIIHNPDYAQGLLTSVKAAVPAVQTEHCFLTHGDMPTLTIDIFRKIWSLRNDGAILPLHNGIPGHPILVSKPCLMQAIQRPNVTNMRQALLMGDHYSVEIENAEIILDIDTPDDFITAKERYTEILEHHHHHH,not failed
7,MLIPHDLLEADTLNNLLEDFVTREGTDNGDETPLDVRVERARHALRRGEAVILFDPESQQCQLMLRSEVPAELLRD,not failed
8,MHPLLRRLDLNLLLVFDALYRHRNVGTAASELAISASAFSHALGRLRQGLDDELFLRQGNRMQPTQRAEHLAAAVAAALRALGEGLEEWRPFVPGQSQRTFVFAATDYTAFALLPPLMNRLQHSAPGVRLRLVNAERKLSVEALASGRIDFALGYDEEHERLPEGIQAHDWFADRYVVVARRDHPRLAGAPTLEGYLAERHAVVTPWNEDSGVIDRLLARSGLRREVAVQLPTVLAALFLAGSTDFLLTAPRHAARALAEAAGLALYPAPFDIPPYVLRLYSHVQHVGRDAHAWMIGQLKGLDISRTG,not failed
9,MTASPIVVFDLDGTLIDTAPDLINALNFILVREGMPAVPMAVARNMIGQGARRLLERGLELDGRVIAQDDVNRLTVDFIDYYAAHIADESRPFEGLEATLDELSESGYRFAVCTNKLEWLSKLLLDRLGLSPRFAAICGADTFGVAKPDPAILRETVAKAGGDLSAAIMVGDAGPDVGVARRAGVPVIGVEFGYTEVPIAELQPDLLVGHMRELPNAVGRLLPR,not failed
10,MNTSSSFKALASPPLISTSRPTTKSFPNPRFTSRFSPKPITCMRDSLNLGSNPKAPSPFSLATVSVDAPLGTKTSDKLRILVSEFRSLTEPIDRVKRLLNYAATLAPLDESARISENRVTGCTTQVWLEIKMDEFGRMRFKADSDSEISKGFCSCLIWILDGAKPEEVMGVRSEDLSEMNVGVHGKEQSRVNTWHNVLMSMQKRTMTLVATDVAHQRGQRPPHQHDLLFKYVNGSYMESSKVHDYSISLLPLYYDFII,failed
11,MTMPIFNISDDVDLVPAMPAEGRDGGSYRRQIWQDDVENGTIVAVWMAEPGIYNYAGRDLEETFVVVEGEALYSQADADPVKIGPGSIVSIAKGVPSRLEILSSFRKLATVIPKP,not failed
12,MSPVVIAVVGVVVLLVLLALVVVSRYKVAGPSEAFIVTGRRGKRSTDPETGRVFTDNSGQKVVVGGGVFVVPFVQQRFTLDLSSRHIPVAVRGAVTLRGVKANLEGVAIVKVGGTEDAIRAAAQRFLMQQDGIVGFTQEVLSGALRAIVGRMSVEDVIRDRAAFAGQVAEEAEASLSGQGLVLDAFQIQDITTEGSYLEDLGRPEAARAKQEADIAEAVARRAAEQARLKAEEEIAVAQRTLYLKQAEIKAETDQAEARANASGPLAEAARQQDILAEQEKVAERQAALKDRQLDTEVRKPADAQRYAAEQEAEARRVARVKQAEAERAAGIAAAQAEAERARLTGEGEKQRRSALADAVRLEGDAEAAAIGAKGAAEAEAMEKKADAFDRYGDAAVLQMLVEVLPQVVAKASEPLAAVDKMTVISTDGASRLTRTVADNVAQGMELLGSTTGVDLTSLLKGITAKEGITAKGEAGRATTENGKVEITDLEHHHHHH,not failed
13,MARLSLVPGRGGLVTEWTVQGQPILYFDRERFQDPSLSVRGGIPILFPICGNLPQDQFNHAGKSYRLKQHGFARDLPWEVIGQQTQDNARLDLRLSHNDATLEAFPFAFELVFSYQLQGHSLRIEQRIANLGDQRMPFSLGFHPYFFCREKLGITLAIPANDYLDQKTGDCHGYDGQLNLTSPELDLAFTQISQPRAHFIDPDRNLKIEVSFSELYQTLVLWTVAGKDYLCLEPLEHHHHHH,failed
14,LKMLRDMTGLPHNRKCFDCDQRGPTYVNMTVGSFVCTSCSGSLRGLNPPHRVKSISMTTFTQQEIEFLQKHGNEVCKQIWLGLFDDRSSAIPDFRDPQKVKEFLQEKYEKKRWYVPPEQAK,not failed
15,MSASSLFNLPLIRLRSLALSSSFSSFRFAHRPLSSISPRKLPNFRAFSGTAMTDTKDAGMDAVQRRLMFEDECILVDETDRVVGHDSKYNCHLMENIEAKNLLHRAFSVFLFNSKYELLLQQRSNTKVTFPLVWTNTCCSHPLYRESELIQDNALGVRNAAQRKLLDELGIVAEDVPVDEFTPLGRMLYKAPSDGKWGEHELDYLLFIVRDVKVQPNPDEVAEIKYVSREELKELVKKADAGEEGLKLSPWFRLVVDNFLMKWWDHVEKGTLVEAIDMKTIHKL,failed
16,MAQKDRNTRIAQKAFEMVDKVYGKSPNLTTKPYDPKDESPSRFTQSAYKYGGPKIYTVREATSTYSYGRAIYMYAPESTIKEPVVSHPTEHIQYYGGTRPFVANPNRFERPKGRVINCDEAVQLYGGVLIKEFRK,failed
17,MLKKVQEHLPRQLLPAPDAITAFCHLIANWSRSELVLALTVDQQGNRAQIITTTSTKFPNLEIIAPWRDLVQGTVIDVLPFLKLPSIFFCLLSKVERIVYIPCGEPEKWCQGLLLVNPVEEPLQQLAEQKGYIAALYRQLLIHHRQSQNSFIFEAQFQDIFDTVPLGLVLIKGDSSTAMVNSYAAQWLQLPPGSHPVQIVAEHMKQGWERCDNCDELVNLFQGLAANANFSAQGECRRGEKTFLIDTHPVRGDSRLGRVWIFSDISDMRQREQALLALAWLDPLTGAFNRRFLLSRVEAYESQAATGEALLTVMIFDIDHFKRINDTYGHDQGDVVLRTLAARAKQVLESCQDGILVRWGGEEFVLLFFVAYEDQAKAVAEELCSVVRSQPVELTDQYSLSVTISLGVTLFRGGEQVLSDSIPRADQALYEAKHGGRDRWVWA,failed
18,MTNQSHDDDDDDEQLPRSLFRLVSLPQKTMTNQTHDDDDDDEQLPLSLTLGSTSYSSQIRPVKSPVPIAPPPEFPGPVTTWPTPADFLATRSMVPDPPPPSHQIPLWMSNYFQQTPNPPQLVTHFFPPSGLAPPSSNLTPPPVKRPVTGSVRIYRSRSTVSKKSDTISPPFPWATNRRGEIQSLEYLESNQITTITGEVQCRHCEKVYQVSYNLRERFAEVVKFYLTEKRKMRDRAHKDWAYPEQRRCELCGREKAVKPVIAERKSQINWLFLLLGQTLGFCTLEQLKNFCKHSKNHRTGAKDRVLYLTYMGLCKMLQPKSDLFTCVAGKR,failed
19,MLRNKAFVVRLYPNAAQAERINRTLGCARFVYNHFLARRIESYRQDGKGMIYAATDKALTLLKREEGTAWLAEVDKFALQQSLRDLERAYQNFFRTAKKSGKKVGFPKFKKKRTGEAYRTQFTNNNIEIGEGKLKLPKLGWVKTRGQRDMQGKILNVTVRRIHEGHYEASVLCEVEIPYLPAAPKFAAGVDVGIKDFAIVTDGKGEFEHHANPKYYRSSLRRLRKAQKTLSRRKKGSARYGRAKTTLARIHKRVANKRQDFIHKLTTSLVREYEITCTEHLKPDNMRKNRRLALSVSDAGWGEFIRQLEYKATWYGRLVSKISPYFPSSQICHDCGFKNPAVKNLAVREWTCPNCGETHDRDENAALNIRREGLVAAGMSDTQNAHGDCIRPTSVGSGLRSENHATSVVLEHHHHHH,not failed
20,KNKKVILFAPTFRGNGHRTAHYPFFKINFARLASYCEEHQATVLFKMHPFVRNKLNIPAIYSKYFLDISNYREVNDVLFITDILISDYSSLIYEFSVFKKPMLFYAFDLEDYIYTRDFYEPYETFVPGKIVKIFDELILALENNDFELEKVKPFLNKNFKYKDGKSSERLVKDLFNKFFQ,failed
21,MGMGSNGELKYEISQNAYIKLVLHSLRHKTAAVNGVLVGRISPKDDGVVEISDSVPLFHSNLALLPPLEISLIMIEEHYVAQGLSIVGYFHANERFDDVELCGVAKNIGDHISRYFPQAPILLLNNKKLEALSKGKERSPVMQLCVKDASKNWRVVGADGGSKLLLKEPSANVVLSDYISSEKWKDVTDVDDHLDDVTKDWLNPGLFN,failed
22,MSINIDSGQDSDQEHDDVMYPQVLPFVLIHAGCLAAIWSGVSWQAVAICVALYWLRMFGITAGYHRYFSHRAYATSRAFQFILAFLAQSSAQKSVLWWAAKHRHHHLHSDTAQDVHSPRHKGFVYSHLGWIFYRQHDATDLVKVSDLASYPELMWLHRLELLPAVVLAGLCFLIAGWSGLVVGFMWSTVVLYHATFCINSLAHVHGRRRYVTGDDSRNNWLLALLTMGEGWHNNHHAYQASARQGFYWYEVDLTYYALVALSWLGIVWDLKLPPRQVLRNEHRLGSRVVKQAAEQLAARFDPEHIALAIRTSIHETELSVRDALSLLQHRADLRLSSMPTREQLLAEAQRMFAKTISLDDIVDRAYELLHDSVGFLLATPALSANTNAKSGI,failed

# Source: a protein production outcome set (Wang et al. 2014)
